Test results from US20250197483A1 (US Dept. of Health and Human Services, published 2025).
Substitutions are numbered along the chain they refer to.

B1: VRC07-523LS.v1 (antibody, human IgG1, kappa)
heavy: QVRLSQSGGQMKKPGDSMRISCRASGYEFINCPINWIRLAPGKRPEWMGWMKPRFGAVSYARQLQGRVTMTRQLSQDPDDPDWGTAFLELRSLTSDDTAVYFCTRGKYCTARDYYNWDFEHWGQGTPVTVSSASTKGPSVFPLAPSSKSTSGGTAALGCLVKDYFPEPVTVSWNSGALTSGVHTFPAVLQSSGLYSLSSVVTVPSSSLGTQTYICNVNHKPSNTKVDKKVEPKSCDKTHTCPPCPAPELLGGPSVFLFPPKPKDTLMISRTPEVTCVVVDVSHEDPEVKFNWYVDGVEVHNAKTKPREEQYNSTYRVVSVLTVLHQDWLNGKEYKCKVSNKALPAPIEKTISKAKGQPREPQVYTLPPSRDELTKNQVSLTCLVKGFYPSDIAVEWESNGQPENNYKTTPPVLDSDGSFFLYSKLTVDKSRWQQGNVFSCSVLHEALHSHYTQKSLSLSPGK
light: LTQSPGTLSLSPGETAIISCRTSQYGSLAWYQQRPGQAPRLVIYSGSTRAAGIPDRFSGSRWGPDYNLTISNLESGDFGVYYCQQYEFFGQGTKVQVDIKRTVAAPSVFIFPPSDEQLKSGTASVVCLLNNFYPREAKVQWKVDNALQSGNSQESVTEQDSKDSTYSLSSTLTLSKADYEKHKVYACEVTHQGLSSPVTKSFNRGEC
B2: VRC07-523LS.v11 (antibody, human IgG1, kappa)
heavy: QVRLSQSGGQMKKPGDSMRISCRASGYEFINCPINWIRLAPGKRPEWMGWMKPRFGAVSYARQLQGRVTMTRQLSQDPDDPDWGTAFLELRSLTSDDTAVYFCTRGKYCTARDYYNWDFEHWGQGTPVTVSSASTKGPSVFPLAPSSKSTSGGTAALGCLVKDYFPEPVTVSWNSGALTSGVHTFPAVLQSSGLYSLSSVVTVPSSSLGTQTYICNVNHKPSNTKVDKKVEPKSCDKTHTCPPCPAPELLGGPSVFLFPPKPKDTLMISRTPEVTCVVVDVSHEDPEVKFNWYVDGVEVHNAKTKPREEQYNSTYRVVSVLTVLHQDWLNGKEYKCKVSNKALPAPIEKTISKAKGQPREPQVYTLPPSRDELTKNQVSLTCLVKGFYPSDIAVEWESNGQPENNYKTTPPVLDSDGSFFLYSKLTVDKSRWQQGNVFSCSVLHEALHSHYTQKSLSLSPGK
light: B1 light with R21D
B3: VRC07-523LS.v34 (antibody, human IgG1, kappa)
heavy: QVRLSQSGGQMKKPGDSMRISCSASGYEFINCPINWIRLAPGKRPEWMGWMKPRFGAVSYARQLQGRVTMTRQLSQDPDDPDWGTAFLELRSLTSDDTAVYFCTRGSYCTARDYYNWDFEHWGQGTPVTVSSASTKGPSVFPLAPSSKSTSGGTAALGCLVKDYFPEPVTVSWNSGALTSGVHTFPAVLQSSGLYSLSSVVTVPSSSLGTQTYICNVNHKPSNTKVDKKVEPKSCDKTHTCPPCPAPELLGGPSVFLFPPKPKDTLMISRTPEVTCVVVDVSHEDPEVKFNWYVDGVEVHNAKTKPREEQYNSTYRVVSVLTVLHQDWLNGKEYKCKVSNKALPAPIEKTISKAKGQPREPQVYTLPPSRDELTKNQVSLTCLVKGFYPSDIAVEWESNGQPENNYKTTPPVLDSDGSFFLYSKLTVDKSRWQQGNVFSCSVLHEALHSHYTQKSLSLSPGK
light: B1 light with R21E

target: T1, FcRn/β2m heterodimer (UniProt P55899 24-297; P61769 21-119); assay: BLI (Octet), pH 7.4: Ni-NTA biosensors coated with His-tagged FcRn/β2m dipped into wells with the antibody as analyte
T1 construct: also called His-tagged FcRn/β2m; neonatal Fc receptor
T1 sequence (P55899 24-297 limits assumed, chain 1 of 2): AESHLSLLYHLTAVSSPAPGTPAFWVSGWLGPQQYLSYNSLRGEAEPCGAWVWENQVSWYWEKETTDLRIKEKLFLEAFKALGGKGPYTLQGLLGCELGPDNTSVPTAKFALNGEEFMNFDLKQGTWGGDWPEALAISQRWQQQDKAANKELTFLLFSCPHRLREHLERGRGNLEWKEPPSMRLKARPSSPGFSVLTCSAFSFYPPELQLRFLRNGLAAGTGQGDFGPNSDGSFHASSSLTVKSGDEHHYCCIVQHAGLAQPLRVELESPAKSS
T1 sequence (P61769 21-119 limits assumed, chain 2 of 2): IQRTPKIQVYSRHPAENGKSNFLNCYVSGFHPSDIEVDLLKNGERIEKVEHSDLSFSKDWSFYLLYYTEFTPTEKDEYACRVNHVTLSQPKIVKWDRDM
Excerpt: Fc-FcRn binding kinetics by bio-layer interferometry. We used Octet HTX system (ForteBio) to measure the Fc-FcRn binding kinetics with FcRn/2m as ligand. […] For reference, we repeated the entire steps mentioned above but with blank Ni-NTA biosensors. Binding kinetic sensograms were globally fitted with 1:1 model and double referencing to extract kinetic parameters.

Binder | Kd
B1 | 0.93 µM
B2 | 3.96 µM
B3 | 6 µM
